Columns and labels:
[1] = biological target: MUC5AC (NPC-1 antigen) expressed by SW480 human colorectal tumor cells (human) (UniProt P98088); assay: flow cytometry on SW480 cells
[2] = biological target: MUC5AC (NPC-1 antigen) expressed by LS174T human colorectal tumor cells (human) (UniProt P98088); assay: flow cytometry on LS174T cells
[3] = biological target: MUC5AC (NPC-1 antigen) expressed by CFPAC-1 human pancreatic tumor cells (human) (UniProt P98088); assay: flow cytometry on CFPAC-1 cells
Chain of MUC5AC (NPC-1 antigen) expressed by CFPAC-1 human pancreatic tumor cells (human) (P98088 other isoform, or with tags, fused parts or gaps limits assumed): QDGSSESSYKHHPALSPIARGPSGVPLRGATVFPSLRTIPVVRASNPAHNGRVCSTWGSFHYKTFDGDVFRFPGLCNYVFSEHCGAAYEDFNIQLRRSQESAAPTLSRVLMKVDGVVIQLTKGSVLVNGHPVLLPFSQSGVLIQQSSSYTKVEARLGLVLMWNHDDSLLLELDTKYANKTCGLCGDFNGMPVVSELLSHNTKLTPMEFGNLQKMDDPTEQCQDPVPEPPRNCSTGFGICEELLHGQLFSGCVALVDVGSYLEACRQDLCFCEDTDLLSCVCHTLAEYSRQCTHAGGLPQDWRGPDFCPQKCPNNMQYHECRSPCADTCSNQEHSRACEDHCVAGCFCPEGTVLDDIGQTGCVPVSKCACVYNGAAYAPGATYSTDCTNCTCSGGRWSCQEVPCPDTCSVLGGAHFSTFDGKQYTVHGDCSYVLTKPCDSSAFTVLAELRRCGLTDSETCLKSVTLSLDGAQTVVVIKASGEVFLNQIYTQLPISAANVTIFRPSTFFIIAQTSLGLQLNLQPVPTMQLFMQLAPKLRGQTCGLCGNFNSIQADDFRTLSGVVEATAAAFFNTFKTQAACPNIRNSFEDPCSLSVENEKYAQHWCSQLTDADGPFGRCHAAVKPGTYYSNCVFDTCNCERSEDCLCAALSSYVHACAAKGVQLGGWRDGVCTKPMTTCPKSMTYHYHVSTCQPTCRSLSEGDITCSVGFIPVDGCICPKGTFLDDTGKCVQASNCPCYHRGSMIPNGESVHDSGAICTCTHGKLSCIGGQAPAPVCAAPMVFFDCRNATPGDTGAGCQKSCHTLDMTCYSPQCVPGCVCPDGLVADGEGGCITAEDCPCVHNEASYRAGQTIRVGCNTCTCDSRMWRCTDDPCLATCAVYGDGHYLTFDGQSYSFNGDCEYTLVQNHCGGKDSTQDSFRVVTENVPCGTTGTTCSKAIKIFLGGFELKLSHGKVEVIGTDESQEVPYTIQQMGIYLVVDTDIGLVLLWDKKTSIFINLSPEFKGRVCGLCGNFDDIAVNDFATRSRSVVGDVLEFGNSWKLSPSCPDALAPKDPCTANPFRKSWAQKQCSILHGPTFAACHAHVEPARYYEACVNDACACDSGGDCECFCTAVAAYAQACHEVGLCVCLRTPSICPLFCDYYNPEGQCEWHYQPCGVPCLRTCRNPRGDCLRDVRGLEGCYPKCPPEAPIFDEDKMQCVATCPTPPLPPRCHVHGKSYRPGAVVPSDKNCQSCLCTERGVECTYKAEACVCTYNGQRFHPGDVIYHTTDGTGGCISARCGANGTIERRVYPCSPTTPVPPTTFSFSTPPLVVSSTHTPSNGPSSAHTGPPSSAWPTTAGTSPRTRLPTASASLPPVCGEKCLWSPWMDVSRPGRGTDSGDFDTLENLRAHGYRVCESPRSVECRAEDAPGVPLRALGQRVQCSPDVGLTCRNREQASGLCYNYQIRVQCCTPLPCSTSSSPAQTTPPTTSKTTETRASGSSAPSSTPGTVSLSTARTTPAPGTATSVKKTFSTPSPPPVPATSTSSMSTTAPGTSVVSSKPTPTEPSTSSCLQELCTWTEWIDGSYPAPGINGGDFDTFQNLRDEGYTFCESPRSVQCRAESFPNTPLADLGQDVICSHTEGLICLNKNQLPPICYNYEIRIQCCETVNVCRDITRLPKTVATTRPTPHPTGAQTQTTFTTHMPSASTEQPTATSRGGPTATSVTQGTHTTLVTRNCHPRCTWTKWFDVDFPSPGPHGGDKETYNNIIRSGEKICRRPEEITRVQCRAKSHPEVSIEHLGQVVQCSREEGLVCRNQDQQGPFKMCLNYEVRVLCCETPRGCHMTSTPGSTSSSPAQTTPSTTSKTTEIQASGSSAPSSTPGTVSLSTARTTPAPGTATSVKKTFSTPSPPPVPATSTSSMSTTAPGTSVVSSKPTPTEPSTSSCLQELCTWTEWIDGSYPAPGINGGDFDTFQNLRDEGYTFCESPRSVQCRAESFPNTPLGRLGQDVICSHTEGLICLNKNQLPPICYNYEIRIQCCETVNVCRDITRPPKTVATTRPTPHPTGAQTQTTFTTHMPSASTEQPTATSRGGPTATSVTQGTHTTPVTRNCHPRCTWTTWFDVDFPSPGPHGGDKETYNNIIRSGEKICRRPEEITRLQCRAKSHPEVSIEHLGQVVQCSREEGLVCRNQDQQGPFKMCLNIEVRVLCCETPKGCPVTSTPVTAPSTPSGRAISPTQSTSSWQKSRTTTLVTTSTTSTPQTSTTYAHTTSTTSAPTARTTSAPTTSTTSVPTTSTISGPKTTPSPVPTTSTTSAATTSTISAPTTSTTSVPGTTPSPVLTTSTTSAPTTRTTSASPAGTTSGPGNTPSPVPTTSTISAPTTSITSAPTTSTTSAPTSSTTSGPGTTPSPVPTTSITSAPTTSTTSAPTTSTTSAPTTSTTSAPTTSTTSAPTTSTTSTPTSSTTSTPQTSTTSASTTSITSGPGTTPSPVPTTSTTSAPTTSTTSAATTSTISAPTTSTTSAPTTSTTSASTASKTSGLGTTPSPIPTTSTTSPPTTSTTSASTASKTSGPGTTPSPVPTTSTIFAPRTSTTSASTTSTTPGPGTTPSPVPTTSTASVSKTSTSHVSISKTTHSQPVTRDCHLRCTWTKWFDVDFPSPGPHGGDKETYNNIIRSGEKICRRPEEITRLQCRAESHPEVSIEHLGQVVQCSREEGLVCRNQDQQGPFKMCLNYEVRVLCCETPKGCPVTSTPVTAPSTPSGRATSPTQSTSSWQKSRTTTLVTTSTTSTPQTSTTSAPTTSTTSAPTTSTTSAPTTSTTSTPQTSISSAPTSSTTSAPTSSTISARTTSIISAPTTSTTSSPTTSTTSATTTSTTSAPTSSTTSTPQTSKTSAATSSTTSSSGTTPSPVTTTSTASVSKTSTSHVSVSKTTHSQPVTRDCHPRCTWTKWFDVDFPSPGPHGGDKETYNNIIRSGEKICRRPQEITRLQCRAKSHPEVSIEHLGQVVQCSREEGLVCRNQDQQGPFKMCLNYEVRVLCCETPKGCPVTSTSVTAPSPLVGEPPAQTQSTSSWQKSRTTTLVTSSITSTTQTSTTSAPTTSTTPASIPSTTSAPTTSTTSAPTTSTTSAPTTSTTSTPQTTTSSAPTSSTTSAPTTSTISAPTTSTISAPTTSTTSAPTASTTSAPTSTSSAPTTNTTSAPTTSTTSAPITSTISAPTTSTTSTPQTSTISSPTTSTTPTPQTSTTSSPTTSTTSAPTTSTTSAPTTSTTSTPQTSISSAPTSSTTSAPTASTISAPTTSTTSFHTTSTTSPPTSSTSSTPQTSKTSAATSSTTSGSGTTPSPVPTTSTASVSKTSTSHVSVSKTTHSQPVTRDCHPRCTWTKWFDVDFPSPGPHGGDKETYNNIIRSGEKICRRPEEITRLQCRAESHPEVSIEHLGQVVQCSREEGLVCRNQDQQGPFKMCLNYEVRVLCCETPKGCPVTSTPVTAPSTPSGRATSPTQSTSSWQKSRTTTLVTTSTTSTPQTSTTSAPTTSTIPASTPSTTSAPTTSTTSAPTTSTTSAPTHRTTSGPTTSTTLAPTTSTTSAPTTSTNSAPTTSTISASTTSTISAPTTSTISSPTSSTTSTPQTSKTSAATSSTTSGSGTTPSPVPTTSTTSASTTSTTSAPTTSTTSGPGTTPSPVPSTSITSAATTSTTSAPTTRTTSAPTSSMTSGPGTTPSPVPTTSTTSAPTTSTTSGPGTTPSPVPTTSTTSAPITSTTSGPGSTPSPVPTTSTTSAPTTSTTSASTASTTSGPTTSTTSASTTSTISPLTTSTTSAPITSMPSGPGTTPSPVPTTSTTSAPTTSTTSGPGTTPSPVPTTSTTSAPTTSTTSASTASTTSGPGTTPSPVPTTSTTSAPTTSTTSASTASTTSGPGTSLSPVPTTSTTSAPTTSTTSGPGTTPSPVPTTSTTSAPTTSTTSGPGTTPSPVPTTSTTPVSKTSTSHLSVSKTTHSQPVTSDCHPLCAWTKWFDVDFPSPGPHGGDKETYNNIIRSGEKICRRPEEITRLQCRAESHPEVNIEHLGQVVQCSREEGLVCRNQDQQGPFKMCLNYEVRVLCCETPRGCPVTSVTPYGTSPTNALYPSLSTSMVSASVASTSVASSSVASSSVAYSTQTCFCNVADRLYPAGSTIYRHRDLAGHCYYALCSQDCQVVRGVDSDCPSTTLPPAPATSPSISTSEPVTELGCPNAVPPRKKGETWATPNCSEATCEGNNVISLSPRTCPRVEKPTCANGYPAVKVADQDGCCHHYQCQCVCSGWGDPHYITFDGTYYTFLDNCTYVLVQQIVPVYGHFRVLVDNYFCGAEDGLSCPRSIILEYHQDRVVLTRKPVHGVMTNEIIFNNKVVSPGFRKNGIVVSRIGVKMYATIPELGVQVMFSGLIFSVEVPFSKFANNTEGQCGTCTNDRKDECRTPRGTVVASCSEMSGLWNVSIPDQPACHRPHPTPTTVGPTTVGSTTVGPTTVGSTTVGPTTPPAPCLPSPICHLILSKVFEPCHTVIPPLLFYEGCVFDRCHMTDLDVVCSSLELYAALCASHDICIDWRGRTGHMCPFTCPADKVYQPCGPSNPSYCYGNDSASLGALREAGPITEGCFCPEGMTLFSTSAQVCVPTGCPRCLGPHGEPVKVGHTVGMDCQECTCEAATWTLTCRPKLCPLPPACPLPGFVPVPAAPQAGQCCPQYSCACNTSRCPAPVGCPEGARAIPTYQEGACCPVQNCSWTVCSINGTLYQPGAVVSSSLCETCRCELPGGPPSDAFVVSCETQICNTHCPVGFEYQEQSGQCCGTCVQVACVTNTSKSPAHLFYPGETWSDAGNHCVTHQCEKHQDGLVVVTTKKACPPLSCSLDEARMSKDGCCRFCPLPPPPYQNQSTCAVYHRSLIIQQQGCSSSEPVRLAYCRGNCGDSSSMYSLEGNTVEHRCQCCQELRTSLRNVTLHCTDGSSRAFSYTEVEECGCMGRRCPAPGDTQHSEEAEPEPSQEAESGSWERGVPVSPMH

[4] = biological target: MUC5AC (NPC-1 antigen) expressed by Colo-205 human colorectal tumor cells (human) (UniProt P98088); assay: flow cytometry on Colo-205 cells
Chain of MUC5AC (NPC-1 antigen) expressed by Colo-205 human colorectal tumor cells (human) (P98088 other isoform, or with tags, fused parts or gaps limits assumed): as above

[5] = biological target: MUC5AC (NPC-1 antigen) expressed by CFPAC-1 human pancreatic tumor cells (human) (UniProt P98088); assay: FACS, 2 µg/ml isotype control antibody-FITC on CFPAC cells
[6] = biological target: MUC5AC (NPC-1 antigen) expressed by LS174T human colorectal tumor cells (human) (UniProt P98088); assay: FACS, 2 µg/ml isotype control antibody-FITC on LS174 cells
[7] = biological target: MUC5AC (NPC-1 antigen) expressed by SW480 human colorectal tumor cells (human) (UniProt P98088); assay: FACS, 2 µg/ml isotype control antibody-FITC on SW480 cells
[8] = biological target: MUC5AC (NPC-1 antigen) expressed by Colo-205 human colorectal tumor cells (human) (UniProt P98088); assay: FACS, 2 µg/ml isotype control antibody-FITC on Colo-205 cells

Chain of MUC5AC (NPC-1 antigen) expressed by LS174T human colorectal tumor cells (human) (P98088 other isoform, or with tags, fused parts or gaps limits assumed, change not shown): as the sequence (P98088 other isoform, or with tags, fused parts or gaps limits assumed) above
Chain of MUC5AC (NPC-1 antigen) expressed by SW480 human colorectal tumor cells (human) (P98088 other isoform, or with tags, fused parts or gaps limits assumed): as above

mfi [1]: 56 mfi
mfi [2]: 35 mfi
mfi [3]: 25 mfi
mfi [4]: 34 mfi
Percent positive [5]: 1.79%
Percent positive [6]: 3.85%
Percent positive [7]: 3.38%
Percent positive [8]: 2.33%
Substance: Isotype control antibody

— US20130247232A1
